Measurements reported in the supplement of paper PMC12455559.

test: purified protein yield per well (BCA); higher = higher soluble expression
Protocol: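 Candidate PET hydrolases were expressed in E. coli C41(DE3) in 2 mL autoinduction cultures in 24-deep-well plates, Ni-bead purified and released by SUMO protease cleavage on an OT-2 robot. Yield per well was measured by BCA; values below 25 ug (0.1 mg/mL) are below the detection threshold. Melting temperature was measured by differential scanning fluorimetry with Sypro Orange, ramping from 25 C at 0.3 C/step.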

Purified protein yield per well, < 25 µg:
APANPYERGPDPTEASVTAEKGPFTIERIDVPTGSGTGFNRGTIYAPTDTSQGTFGAIAVSPGFVSPQAWIDWYGPRLASQGFVVMTLETLNLMDVPDSRANQLLAALDYLTGKSTVKNRIDPARLAVMGHSMGGGATLRAAAERPALQAAIPLAPWHTDRDWQGVTVPTMIMGADNDFIAGVGAHAEPFYRNLTSAPEKAYLELRNAGHMSFNTPNTTIAKYGISWMKRFVDDDTRYDRFLCPAPRPGAAINEYRDTCPNG [TEP186]
APAPATAAAADNPYERGPDPTEDSIEAARGPYDVAETSVSSWVVSGFGGGTVYYPRETDDGTFGAVAVAPGYTASQSSMAWLGPRLASQGFVVFTIDTLTRLDQPASRGRQLLAALDYLTERSAVRNRIDASRLGVMGHSMGGGGTLEAAADRPSLQAAVPLAPWNLDKTWGELRVPTMIIGADGDSIAPVSSHSEPFYESLPGGLDRAYLELNNADHFTPNLPDTTLAKYSLSWLKRFIDNDTRYEQFLCPLPRPGWYIEEYRGTCPHLS [TEP124]
APGPSAPCADCSRGPNPTVASLQSRSGPFTVSTFSVSGYLRGFGNSTVHYPTNATGKMGAIAVIPGYLSYEDSIRWWGPRLASHGFVVITMNTNTIYDQPDSRATQLSRALDYVIEQSNSRSSPISGKVDSTRLGAIGWSMGGGGSLKLSTERSLNAIIPQAPYYAGLNRFNTINTPTMILACSADVVAPVASHASPFYNRIPDATPKAFLEIYGGSHFCANSGYPNEDLLGMYGISWMKRFIDFDSRYSQFLCGPNHAADLRVSEYRENCNY [ESM165]
APPVAGPYQRGPAPTEEVLVAARGPFAVTQTRMAAGQGTGAGTVHHPTDASQGTFGAVAVMPGFMGTEKSIRLYGPLLASHGFVVLTLSSVRRADFPDQRADQLLAALDRLVAGPAKGLIDAERLAVVGHSMGGGATLRAAARRPGLKAAVPLAPWHVRRDWRSVRVPTLIFGSENDRVAPVDKHAEPFYASLTRAPEKAYVELRDGGHLSFNTANPVIAKYTVSWLKRYVDDDVRYDPFLCPGPAFPSPTIREYRGTCPS [DP060]
APQAPENPYQRGPAPTEQSIVADRGSFEVERISVGSWSGPGFNKGTIYAPKDRSQGTFGAIAVSPGFVSPEYLISWYGERLASRGFVVMTIETTTLYDQPAQRGDQLLAALDYVVSDDSPVRDRVDPNRLAVMGHSMGGGGTLHAVKERKSLKAAVPLMPWNLFTDWGDVQTPTMIIGAQNDLIASVGLHSEPFYNSLRSAREKAYLEMDGAGHLVANSPNDTIAKYTIAWMKRYVDNDTRYEQFLCPAPSRDRNISEYRDTCPGS [DP015]
APVAVAPAAVPVHGVDPTDANLRQPVGDLAFSQVTIADSQTPGFGAATIYYPDDTTHGTYGGVAVVPGYTSPQSAVAWLGPRLASRGFVVITIATNSIYDQPTTRGRELLSALDYLTTSSPAAVRQRLDPQRLAVMGHSMGGGGALYAVSQRTTIKAAVPLAPYNQDKTWQTVKTPTMLMAGSADNVAGIGTFSRPFYRSMTGARERALVNVQGADHGTFVRENATIGKYATAWLKRFVDEDTRYDQFLCPAPTGDGLTEYTASCPNA [DP012]
AQPQKGPDPTEQLVKSQTGPFDIARTSVPAGSGRGFNKGTLYYPTDTSQGAYAAVAVIPGFFEGEYTQSWFGPALASHGFVVFTLETHGLFDFPDQRGDQLIAALDWLVASSPVKDRVDPARLAVMGHSMGGGGTLAAANKRPSIKAAVALTPWHMTKRFPGIEAATMIIGAQSDSIASVSGHAEPMYAALTSPDEHAYVELTGGHFVTNSYTATNMRFILPWLKRFLDSDTRYSPFVCPGPAQDSTFVEYRNTCPV [TEP047]
AQQTILQESFNSSLGSFTSAGSVSVGSSGALMRGSAYSTDGRITSAAVSTQGLTNIVLSFTSATSGLDLGEAAIVSYSTNGSSYTTVSSERYATGSFTFNLGTAAANQSQLFLRFAIDASSTYETYAVDNIILTGDGEGGGTTCTTCIGPDPTVAALEAARGPFNTSSFGLSSWSVSGFGGGDIFYPTNAPAGPLAAIAICPGFLGTSETVDWWGPRLASHGFVVIVMDPNSVFDQPAQRATQLMACLDELEDQNNDSGSPIYGMVDSNRVGLMGHSMGGGGTLIATEDNPSVIKAAIPMAPWNMLSSNFSDITTPTLVIACEADLIAPVAQHARPFYDSIPSTVPKAFLEINNGDHLAVMNGDVFEDMLGKYGVAWMKVFLDNDQRYMQFLCGPDHESDWDISDYRSSCPY [DP024]
AQSPYERGPAPTETSVRASTGPFQYAQVSVPGAGFGSGTIYYPTDTGQGTFGGVAVSPGFLSPEILIAWLGPKLASNGFVVITISTNNPGDQPDSRGEQLLAALNYLATQSPAAVRQRLDPGRLSVIGHSMGGGGALRAADSRPDLQAAIPLGGWHTNKNWSNIRVPTMVIGAQNDFIAPNDQHSQRFYTSITQAPEKAYLRPVGTGHVNVGTGTPVVGKFVLSWLKRFVDDDTRYDQFLCPTPSGSDLVEYHSTCPHT [DP014]
ASLSIGGEYQVLTYTDFPDVPEFGDATIYYPLETPGTVGGVAIAPGFTERQSHIEWWGPRLASHGFAVLVLDTNERRAMPDARGDALLAAVEVLRRESAREGSPLFGRVATDKMAIMGHSMGGGGALLAANEHSDQIQAAIPFTPWEPQAVFQDITVPTLVLAGSVDRLARVDNHAWRHYQSIPESTPKAYLEVGGGNHYIADTERGTDLETI [TEP137]
ASPYERGPDPSRTSIEARRGPFAVTSTSVSDLSTPGFGSATITYPTSTAEGTYGAVAVSPGFTASESTIAWLGPRLASQGFVVITFNTQSRLDQPAARGDQLLAALDYLTQRSSTTIRSRIDPTRLAVIGHSMGGGGTLEAAKDRPSLQATVGLTPWNLDKSWPEIRTPSLVIGAESDTVAPVGSHAVPFYQSIPSSTAKAYLELNNASHFAPNTENTTIASSTISWLKLYVDDDDRYRQFLCPGPQSSVTGSVSDYRNTCTS [DP050]
ATASFQRGPAPSAASIRATDGPFAITRTNVARAAVSGFGGGDIYAPDDTSQGTFGAVAIAPGFTATRSSMAWLAPRIASQGFVVFNIDTLTTSDQPATRGRELLAALDFLTAQSTARAKIDKNRLAVMGHSMGGGGTLEAAKSRPALKAAVPLTPWDLTKNFAGVTVPTMIIGAQSDTIAPVRQHSERFFASLPSGADTGYLELAGASHFAPNIPNTTIASTSVAWLKRFVDEDTRFEQFLCPGPATGATVSEYETNCPHQG [DP071]
ATGPSAPCTNCTRGPAPTTAALKSNTGPFTTAKFSVSGLLKGFGNSTVYYPTNTTGKMGAIAVIPGFLSYEDSIEWWGPRLASHGFVVMTMNTSTIYDQPDSRATQLSKALDYVISQSNTSSSPIYGKVDSTRLGAIGWSMGGGGSLKLSTQRSLNAIIPQAPYYAGLNSFNTIKTPALILACSADAVAPVGVHASPFYNKIPSTTPKAFLEIYGGSHFCANSGYPNQDLLGLYGISWMKRFIDFDTRYSQFLCGPNHTASGTISEYRQNCPY [ESM019]
ATTAGTFGGVAISPGYTASESTIAWLGPRIASQGFVVITFNTNSRYDQPASRGDQLLAALDYLTGSSAVRARVDASRLAVMGHSMGGGGALEAAKDRPSLQAAIPLTGWNTDKTWPEVRTPTLVIGAENDSVAPVGSHSIPFYNSLTSAPERAYLELNNASHFAPNSPNTDIASSSIAWLKRYVDDDTRYTQFLCPGPSVSAFGSVSDYRATCPM [TEP154]
ATTSFRRGPDPSAASIRAANGPFAIAKTTVARQAGFGGGDIYAPTDTSRGTFGAVAIAPGFTATRSSLAWLAPRIASQGFVVFNIDTLTTSDQPAQRGRELLAALDFLTGSSTARAKIDRTRLAVMGHSMGGGGTLEAAKARPSLKAAVPLTPWDLTKNFATVKVPTMIIGAQSDTIAPPSRFSDQFFASLPAATNKGYLELAGASHFAPNIPNPTIASTSIAWLKRFVDGDTRFEQFLCPGPSSNGISEYQTNCPHKA [ESM129]
ATTTLLAESFDNGFGVFSAQGYASTDNGVAVLRGGSADGTITSGAVPAAGQTNLTLSWTQTTSRLDAGESLVVEWSTGSSWSSLSSERSSGVLSVGLPTAAASNALQLRFRVDASSYYERVDVDDVVLTAGDGGGSGNPYAKGPDPTWNSIEATTGPFEVDDYDISSFAADGFGGADVYYPSDAGSATFGGIAISPGYTASRSTVTWLGPRIASQGFVVIVIDTNSRYDQPASRGDQLLAALDQLVNDSDVSHLVDPNRLAVMGHSMGGGGSLEAADDRPSLRAIVPLQGWNSDKTWSQVQVPALLIGGENDSVAPDSSHSQRFYDSLGGEKVYLQLNNASHFASNSPNTTIASYSIAWLKRWVDEDTRYSQFVCGPDAGQGSAISDYRTTCPV [DP065]
ATVACSDCSNGFQRGTLPRVDQLESSRGPYSVKTSNVSVFARGFGGGTIHYSTDSGGQQGIIAVIPGYVSYESSIKWWGPRLASWGFTVITINTNTIYDQPNSRANQLSAAIDYVIDKGNDRSSPIYGLVDPERVGVIGWSMGGGGTLKLATDRDIDAIIPQAPWYSGLNSFSRITTPTMVIACQADAVAPVALHASIFYNQIPRSTPKAFFEIAAGSHFCGNSGYPNEDILGRNGVAWMKRFIDNDTRYNQFLCGQNFDRSLRVSDYKDTCNTY [DP094]
ATVTPIRMETRIRTSSFTRFTSTPTACAFDSPIAKAFSSVRSRIDASRLAVAGHSMGGGGTLEAAKDRPGLRAAVPLAPWNTTKNWSGNRVPTLIIGGQSDTIAAVSSHAVPFYTSLPTTPDKAYLELAGASHFFPQSANADVAMMFVSWLKRFVDGDTRYEQFLCPGPSVSGSVSRYSSTCPLASGPTPTSTTTATTGTSTTRTTTTSSGGSGGGACSASYATSNAWQGGFVGTVTVRADLALSGWQVTLALPAGTTITGSWNGVRSGSTGTVQVRNETYNGILASGQTTSFGFQGSGSPSGLTVTSCTAN [ESM108]
AVQNGPAPTSTSVNAAGTYATASSAVAASASLGFGGGTIYYPTAAGTYGVIALCPGFTATQTSVAWLAQRLATHGFVTLAMNTNNPLLDSPSSRGIQLRAAIAYLTGSSAPAAVKAHVDATRRAVYGHSMGGGGVLYALTSDKTLKAGFPMAPYNTATTSFPTITSATMILTGTGDTTAPPSTYGLPMYNSLPVTTQKAYALLTGAGHS [TEP161]
CAAQAQTSPPTSASLNATAGPLSVSTSSVSSWAARGFGGGTIYYPNATGRYGVVAISPGYTARQSSIAWLGRRLATHGFVVITIDTNSTLDQPPSRATQLMAALNHVVNNANATVRSRVDASKLAVAGHSMGGGGSLIAAENNPSLKAAYPLTPWSVSKNYSSVRVPTMIIGADGDSIASVSTHSRLFYNSLSSNVSKAYGELNNASHFTPNYTNTPIGRYAVTWMKRFVDNDTRYSPFLCGAPHDSYATRTVFDRYEDNCAY [ESM071]
CADRPPVQDEDPAPTAASLAAPLGPYRTSTATVPRGLTEAFGGGTIYYPSGRPRGDTFGGVIIAPGRNGNQGGMAWYGPLLASRGFVVFAIDTLHLKDRPAARAHELEAAMTYLTVRSPVATLVDADRLAVMGHSFGGGAALETAADRPTLRAAIPLMPYDKGREFSNVRVPTLVVAAQNDKIAPVSRHARRFYRSIPASSGKGYLEIAGTTHSSPKKPNTTLAAYVIAWLKRYVDGDERYERFLCPGPIDDPSVALYRNPCS [TEP060]
